Measured values from article PMC7210945, “The pivot point arginines identified in the β-pinwheel structure of C-terminal domain from Salmonella Typhi DNA Gyrase A subunit”.

Assays:
[1] = molecular target: Salmonella enterica serovar Typhi DNA Gyrase A C-terminal domain (StGyrA-CTD) (Salmonella enterica serovar Typhi (CT18 strain)); experiment: SEC
[2] = molecular target: StGyrA-CTD R667A R667A (Salmonella enterica serovar Typhi CT18) (UniProt A0A1U7FVV6); experiment: fluorescence binding
[3] = molecular target: StGyrA-CTD R712A R712A (Salmonella enterica serovar Typhi CT18) (UniProt A0A1U7FVV6); experiment: fluorescence binding
[4] = molecular target: StGyrA-CTD R716A R716A (Salmonella enterica serovar Typhi CT18) (UniProt A0A1U7FVV6); experiment: fluorescence binding
[5] = molecular target: StGyrA-CTD R766A R766A (Salmonella enterica serovar Typhi CT18) (UniProt A0A1U7FVV6); experiment: fluorescence binding
[6] = molecular target: StGyrA-CTD R817A R817A (Salmonella enterica serovar Typhi CT18) (UniProt A0A1U7FVV6); experiment: fluorescence binding
StGyrA-CTD D692A = StGyrA-CTD D692A (Salmonella enterica serovar Typhi CT18, UniProt A0A1U7FVV6 530-840, D692A); experiment: fluorescence binding; 1 mM Mg2+; conditions: protein: recombinant; tags: C-terminal 6xHis; blunt
StGyrA-CTD wild type = StGyrA-CTD wild type (Salmonella enterica serovar Typhi CT18, UniProt A0A1U7FVV6 530-840); experiment: fluorescence binding; 1 mM Mg2+; conditions: protein: recombinant; tags: C-terminal 6xHis (pET-28a); chain copies: 2; blunt
StGyrA-CTD R612A = StGyrA-CTD R612A (Salmonella enterica serovar Typhi CT18, UniProt A0A1U7FVV6 530-840, R612A); experiment: fluorescence binding; 1 mM Mg2+; text gives 220-250 nM for other mutants; conditions: protein: recombinant; tags: C-terminal 6xHis; blunt

Molecule: Salmonella enterica serovar Typhi DNA Gyrase A C-terminal domain (StGyrA-CTD) (domain or fragment)
- stoichiometry N [1]: 2

Molecule: TAAAGTCTAGAGACACGCATAGTCAATGACGGAGTTA (double strand) [FAM-37 bp DNA]
- Kd [2]: 263 nM
- Kd [3]: 231 nM
- Kd [4]: 277 nM
- Kd [5]: 221 nM
- Kd [6]: 204 nM

B1: FAM-37 bp DNA (dsDNA)
DNA 1: TAAAGTCTAGAGACACGCATAGTCAATGACGGAGTTA
DNA 2: TAACTCCGTCATTGACTATGCGTGTCTCTAGACTTTA
- Kd (StGyrA-CTD D692A): 129 nM
- Kd (StGyrA-CTD wild type): 122 nM
- Kd (StGyrA-CTD R612A): 135 nM
